{
  "source": "paper PMC6351639",
  "about": "“Synergistic effect of acetyl xylan esterase from Talaromyces leycettanus JCM12802 and xylanase from Neocallimastix patriciarum achieved by introducing carbohydrate-binding module-1” (AMB Express, 2019)",
  "proteins": {"B1": {"name": "AXE + CBM1 (Evansstolkia leycettana) (protein)", "chain": "VAVDHDGARLARRITRGSLQQVTNFGSNPTNVGMYIYVPNNLATNPGIVVAIHYCTGSAQAYYSGSPYAQLAEQYGFIVIYPSSPYSGTCWDVSSQAALTHNGGGDSNSIANMVTWTISQFNADTSKVFVTGSSSGAMMTNVMAATYPELFAAATVYSGVPAGCFVSSTNQVDAWNSSCAQGQVIDTPAQWASVAENMYPGYTGPRPRMQIYHGSVDTTLYPQNYYETCKQWAGVFGYNYDSPQQTINNDPEANYQTTIWGPNLQGIFATGVGHTVPIHGTQDMEWFGFAGESTGGGTTTTSATTTTTSKPTSTTSSGGSTSTAVAQHWGQCGGIGWTGPTTCVSPYTCTFVNDYYYQCL", "notes": "mature full-length: hydrolase domain 20-309, S/T-rich linker 310-342, CBM1 343-380; signal peptide removed; no tag stated; pPIC9, secreted from Pichia pastoris GS115"}, "B2": {"name": "AXE (Evansstolkia leycettana) (protein)", "chain": "VAVDHDGARLARRITRGSLQQVTNFGSNPTNVGMYIYVPNNLATNPGIVVAIHYCTGSAQAYYSGSPYAQLAEQYGFIVIYPSSPYSGTCWDVSSQAALTHNGGGDSNSIANMVTWTISQFNADTSKVFVTGSSSGAMMTNVMAATYPELFAAATVYSGVPAGCFVSSTNQVDAWNSSCAQGQVIDTPAQWASVAENMYPGYTGPRPRMQIYHGSVDTTLYPQNYYETCKQWAGVFGYNYDSPQQTINNDPEANYQTTIWGPNLQGIFATGVGHTVPIHGTQDMEWFGFA", "notes": "hydrolase domain only, linker and CBM1 (310-380) removed; signal peptide removed; no tag stated; pPIC9, secreted from Pichia pastoris GS115"}},
  "substrate": "CC(=O)Oc1ccc([N+](=O)[O-])cc1",
  "test": "purified protein",
  "format": "biochemical, Evansstolkia leycettana",
  "conditions": "optimal conditions, 55 °C, 20 mM citric acid-Na2HPO4 pH 6.0 (standard assay), free enzyme",
  "data": [
    {"protein": "B1", "values": [
      {"measurement": "Km", "value": "500 ± 20", "unit": "µM"},
      {"measurement": "Vmax", "value": 455, "unit": "µmol/min/mg"},
      {"measurement": "kcat", "value": "306 ± 9", "unit": "s⁻¹"},
      {"measurement": "kcat/Km", "value": "612000 ± 12000", "unit": "M⁻¹ s⁻¹"}
    ]},
    {"protein": "B2", "values": [
      {"measurement": "Km", "value": "720 ± 30", "unit": "µM"},
      {"measurement": "Vmax", "value": 625, "unit": "µmol/min/mg"},
      {"measurement": "kcat", "value": "326 ± 17", "unit": "s⁻¹"},
      {"measurement": "kcat/Km", "value": "453000 ± 18000", "unit": "M⁻¹ s⁻¹"}
    ]}
  ]
}
